Measurements published in the nanobody polyreactivity screen of Harvey et al. (2022).

Assay: yeast display, Sf9 membrane polyspecificity reagent, FACS + sequencing; frameworks hold sequencing errors
In short: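 Nanobodies came from a synthetic yeast display library in Saccharomyces cerevisiae BJ5465, induced with galactose for 36–48 hours and stained for 1 hour at 4 °C with 10% biotinylated, detergent-solubilized Sf9 membrane reagent. Cells were enriched on streptavidin microbeads and then FACS-sorted, with low and high (top ~1%) gates set on anti-HA fluorescence for expression and streptavidin fluorescence for reagent binding. Each polyreactivity label reflects the gate a clone came from. Genes were amplified by colony PCR, sequenced by MiSeq 2 × 250 and filtered by CDR length.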

| Sequence | polyreactivity (PSR sort gate) |
| --- | --- |
| QVQLVESGGGLVQAGGSLRLSCAASGRISPVYAMGWYRQAPGKERELVAAITSGGSTNYADSVKGRFTISRDNAQNTVYLQMNSLKPEDTAVYYCAVEGFSSAAYDFEYWGQGTQVTVSS | high polyreactivity |
| QVQLVESGGGLVQAGGSLRLSCAASGSTFLGYAMGWYRQAPGKERELVAAITYSGGGTYYADSVKGRFTISRDNAKNTVYLQMNSLKPEDTAVYYCNADVSWSYSVYREYGMDYWGQGTQVTVSS | low polyreactivity |
| QVQLQECGGGLVQAGGSLRLSCAASVNIFDADIMGWYRQAPGKERELVASVTDGGSTNYADSVKGRFTISRDNAKNTVYLQMNSLKPEDTAVYYCAAIVYPDILTYFEYDYDYFYWGQGTQVTVGS | low polyreactivity |
| QVQLVESGGGLVQAGGSLRLSCAASGSTFWYYAMGWYRQAPGKERELVADITYSGVSTYYADSVKGRFTISRDNAKNTVYLQMNSLKPEDTAVYYCNADWGSVNGYSGYYYWGQGTQVTVSS | low polyreactivity |
| QVQHVESAGGLVQAGGSLRLSCAASGITFKVYAMGWYRQAPGKERELVATISRSDAGTSYADSVKGRFTISRDNAKNTVYLQMNSLKPEDTAVYYCAATYVSKKTHTKYDYWGQGTQVTVSS | high polyreactivity |
| QVQLVESGGGLVQAGGSLRLSCAASGLTSSGNAMGWYRQAPGKERELVAAISWKAGSTYYADSVKGRFTISRDNAKNTVYLQMNSLKPEDTGVYYCAATLWSKTGYDYWGQGTIVTVSS | low polyreactivity |
| QVQLVESGVGLVQAGGSLRLSCAASGGTFPYYAMGWYRQAPGKERELVAAISRSGARTYYADSVKGRFTISRDNAKNTVYLQMNSLKPEDTAVYYCATDNTYGYDYWGQGTQVTVSS | high polyreactivity |
| QVQLVESGGGLVQAGGSLRLSCAASGFTFIRYAMGWYIQAPGKERELVASISNRGGRTYYADSVKGRFTISRDNAKNTFYLQMNSLKPEDTAVYYCAAKFSSYWSRFGYWGQGTQVTVSS | high polyreactivity |
| QVQLVESGGGLVQAGGSLRLSCAASGFTFYSYAMGWYRQAPGKERELVASISQSGGRTYYADSVKGRFTISRDNAKNTVYLQMNSLKPEDTAVYYCARQRSYGRSSYSYGYDYWGQGTKVTVSS | high polyreactivity |
| QVQLVESGGGLVKAGGCLRISCAASGRIFGSYAMGWYREAPGIERELVASIRSGGRTKYADSVKGRFTISRDNAKKTVYLQMNSLKPEDTAVYYCDVPIQWDYGYWGQGTQVTVSS | low polyreactivity |
| QVQLVESGGGLVQAGGSLRLSCAASGIIFRNNAMGWYRQAPGKEREFVARISKRGGSTYYADSVKGRFTISRDNAKNTVYLQQNSLKPEDTAVYYCAKGYGSGSYLYDYWGQGTQVTVSS | high polyreactivity |
| QVQLEESGGGLVQAGGSLRLSCAASGRIFVRNGMGWYRQAPGKESELVPAITSAGSTNYADSVKGRFTISRDNAKNTVYLQMNSLIPEDTAVYYCATEPSGYYDSYYYFTYSDNYWGQGTQVTVSS | low polyreactivity |
| QVQLVESGGGLVQAGGSLRFSCAASGRIFDYYAMGGYRQAPGKERELVATINVSDGSTYYADSVKGRFTISRDNAKNTVYLQMNSLKPEDTAVYYCAAAGWVPFDSLDLNYWGQGTQVTVSS | low polyreactivity |
| QVQLVQSCGGLVQAGGSLRLSCATSGFTFPLYAMGWYRQAPGKERELVAAISSGSSTYYADSVKGRFTISRDNAKNTVYLQMNSLKPEDTAVYYCAAQKRGSPGYRRDYWGQGTQVTVSS | high polyreactivity |
| QVQLVESGGGLVQSGGSLRLICAASGRTSLNYAMGWYRQAPGKEMELVAAITRGGGGTYYADSVKGRFTISRDNAKNTVYFQMNSLKPEDTAVYYCAREHKRGGYGYWGQGTQVTVSS | high polyreactivity |
| QVHLEESGGGLVQAGGSLRLSWAASGATFSNYTMGWDRQAPGNERELVAAISRTGGSTYYADSVNGRFTISRDNAKNHVYLQISSLEPEDNAVYYCAAICYVGRYYYWGQGNQVTVSS | high polyreactivity |
| QVQLVESGGGLVQAGGSLRLSCAPSGSTFYPNAKGWYRQAPRKERELVAAISRSGGSTYYADSVKGRFTISRDNAKNTVYLQMNSLKPEDTAVYYCAADGRSPARYDYWGQGTQVTVSS | low polyreactivity |
| QVQLVESGGGLVQAGGSLRLSCAASGRTFWTNAMGWYRQAPGKERELVAAISYRAGSTYYADSVKGRFTISRDNAKNTVYLQMNSLKPEDTAVYYCATRAVYYYAGFDYWGQGTQVTVSS | high polyreactivity |
| QVQLVESGGGLVQAGGSLRLSCAASGSTFGFYAMGWYRPAPGKERELVAAISWSTTSTYYADSVKGRFTISRDNAKNTVYLQMNSLKPEDTAVYYCAAEEWYLWYYYWGQGTQVTVSS | high polyreactivity |
| QVQLVESGGGLVQAGGSLRLSCAASGRTFYRNAMGWYRQAPGKERELVAAITWSGVSTYYADSVKGRFTISRDNAKNTVYLQMNSLKPEDTAVYYCARGRVLRNGHYFQLRNYDYWGQGTQVTVSS | high polyreactivity |
| QVQLVESGGGLVQAGGSLRLSCAASGRIFGHYAIGWYRKAPGKERELVAAISTSGGSTYYADSVKGRFTISRDNAKNTVYLQMNSLKPEDTAVYYCAASVVYYPYDYWGQGTQVTVSS | high polyreactivity |
| QVQLVESGGGLVQAGGSLRLSCAASGFTFHSYAMGWYIQAPGKERELVAAISARGGSTYYADSVKGRFTISRDNAKNTVYLQMNSLKPEDTAVYYCAAYSYQVRFYYWGHGTQVTVSS | high polyreactivity |

| Sequence | polyreactivity (PSR sort gate) |
| --- | --- |
| QGQRVESGGGLVQAGGSLRLSCAASGLIFSRYGMGWYRPARGKDRELVAAISGGGGSTYYADSVKGRFTISRDNAKNTVYLEMNSLKPEDTAVYYCARKYTRKIPASDYWGQGTQVTVSS | high polyreactivity |
| QVQLVESGGGLVQAGGSLRLSCAASGSIFAHYTMGWYRQAPGKERELVAAISGSGGSTYYADSVKGRFTISCDNAKNTVYLQMNSLKPEDTAVYYCNKRYRPVGPYDYWGQGTQVTVSS | high polyreactivity |
| QVQLQESGSGLVQAGGSLRLSCAASGNISHYNDMGWYRQAPGKEREPVATINSGSITYYADSVKGRFTISRDNAKYTVYLQMNSLKPEDTAVYYCAVKQHGYFYLDYWGQGTQVTVSS | high polyreactivity |
| QVQLVESGGGLVQAGGSLRLSCAASVSTFEANAMGWYRQAPGKERELVAVITWTGGSTYYADSVKGRFTISRDYAKNNVYLQMNSLKPEDTAVYYCAAKFHRFAWYSHYDYWGQGTQVTVSS | low polyreactivity |
| QVQLVESGGGLVQAGGSLRLSSAASGSTFEYNAMGWYRQAPGKERELVASSTNYADSVKGRFTISRDNAKNTVYLQMNSLKPEDTAVYYCAREQGVNRNHDYWGQGTQVTVSS | low polyreactivity |
| QVQLVESGGALVQAGGSLRLSCAASGSTLVTNAMGWYRKAPGKERELVAAITFSGGTTYYADSVKGRFTISRDNAKNTVYLQMNSLTPEDTAVYYCGAEIWLEYVGYDYWGQGTQVTVSS | high polyreactivity |
| QVQLVESGGGLVQAGGILRLSCAASGSIFQTNAMGWYRPAPGKERELVAAISQRGGRTYYADSVKGRFTISRDYAKNTVYLHLKSLKPEDTAVYYGAATQSQRVHAARYGYWGQGSQVTVSS | high polyreactivity |
| QVQLVESGGGLVQAGGRLRLSCAASGIIFPRYAMGWYRQAPGKERELVAAISGSGVGTYYADSVKGRFTISRDYAKNTVYIQMNSLKPEDTAVYSCATRYQWGGPYYRYDYWGQGTQVTVSS | high polyreactivity |
| QVQLVESGGGLVQAGGSLRLSCAASGSILDIYAMGWSRQAPGKERELVAGISTSGGSTYYADSVKGRFTISRDNAKNTVYLQMNSLKPEDTAVYYCAKDYGYQGHTRTLYWAYLEYDYWGQGTQVTVSS | low polyreactivity |
| QVQLVESGAGLVQAGGSLRLSCAASGFIFRGNTMGWYRQAPGKERELVASITRGGGRTYYADSVKGRFTISRDNAKNTVYLQMNSLKPEDTAVYYCAARTRSDNSYHGGEYWGQGTQVTVSS | high polyreactivity |
| QVQLVESGGGLVQAGGSLRLSCAASGSIFSSYAMGWYRQAPGKERELVAAISQSGGDTYYADSVKGRFTISRDNAKNTVYLQMNSLKPEDTAVYYCNRDFSLVVHYNFDYWGQGTQVTVSS | low polyreactivity |
| QVQLVESGGGLVQAGGSLRLSCAASGIIFSSYAMGWYRQAPGKERELVAAIDWRGDSTYYADSVKGRFTISRDNAKNTVYLQMNSLKPEDTAVYYCAADGSTYDSVRYGYWGQGTQVTVSS | low polyreactivity |
| QVQLVESGGGLVQAGGSLRLSSAAYGSIFDSNAMGWYRQAPGKERELVAAIRYSGGRTYYADSVKGRFTISRDNAKNTVYLQMNILKPEDTAVYYCAARSKVYKVGYNYWGQGTQVTVSS | high polyreactivity |
| QFQLVESGGGLVQAGGSLRLSCAASGRTFGTYAMGWYRQAPGKEREVVAAISTRGGRTFYADSVKGRFTISRDNAKNTVYLQMNSLKPEDTAVYYCAARGTDPGHKYEYWGQGTQVTVSS | high polyreactivity |
| QVQLVESRGGLVQAGGSHRLSCADAGYSNIANAMGSDRQAPGKERELVAAISIGGNTKYADSVKGRFTISRDNAKNTVYLQMNSLKPEDTAVYYCAVEDQYYSVSLGGEYDYWGQGTQVTVSS | high polyreactivity |
| QVQLVESGGGLVQAGGSLRLSCAASGRIVWSYGMGWYRQAPGKERELVAAITNTGDGTYYADSVKGRFTISRDNAKNTVYLQMNSLKPEDTAVYYCAVDYRGYWYWEYDYWGQGTQVTVSS | high polyreactivity |
| QVQLVESGGGLVQAGGSLRISCAASGSTFRYYAMGWYKQAPGKERELVAAITTSGGRTYYADSVKGRFTISRDNAKNTVYLQMNSLKPEDTAVYYCAIRYSTPYLTDNFLSGPGYYYWGQGSQVTVSS | high polyreactivity |
| QVQLVESGGGLVQAGGSLRLSCAASGRIFYYYAMGWYRQAPGKERELVAAISWSGGSTYYADSVKGRFTISRDNAKNTVYLQMNSLKPEDTAVYYCAAESRKYREYYYWGQGTQVTVSS | high polyreactivity |
| QVQLVESGGGLVQAGGSLRLSCAASGSTLGYYTMGWYRQAPGKERELVAAISYGGGSTYYADSVKGRFTISRDNAKNTVYLQMNSLKPEDTAVYYCAARWGKSWRGYGYWGQGTQVTVSS | high polyreactivity |
| QVQLVESGGGLVQAGGSLRLSCAASGRTFVFNTMGWYRQAPGKERELVADISRGDSTNYADSVKGRFTISRDNAKNTVYLQMNSLKPEDTAVYYCAAKWRWSGSILYRYGYGYWGQGTQVTVSS | high polyreactivity |
| QVQLVESGGGLVQAGGSLRLSCAASGSTFYLNAMGWYRQAPGKERELVASITWSGGRTYYADSVKGRFTISRDNAKNTVYLQMNSLKPEDTAVYYCAADPVWGRYIKYDYWGQGTQVTVSS | high polyreactivity |
